We go through 6 molecules from patent US20050152903A1 (CRITICAL THERAPEUTICS, published 2005).

First the molecules themselves.
B1: 2E11 HMGB1 mAb (antibody, V domains shown)
VH: QVQLQQSGPELVRPGTSVKISCKTSGYTFLTYWMNWVKQRPGQGLEWIGQIFPASDNTYYNEMFKDKATLTVDTSSSTAYIHLSSLTSEDTAVYFCAREDSMDYWGQGTSVTVSS
VL: DIQMTQTTSSLSASLGDRVTVSCSASRGINNYLNWYQQKPDGTVKFLIYYTSSLHSGVPSRFSGSGSGTDYSLTISNLEPEDIATYYCQQYSKLPWTFGGGTKLEFK
notes: Murine hybridoma monoclonal antibody (ATCC PTA-5431); also called 2E111-1-1-2; CT3-2E11
B2: peptide corresponding to amino acid residues 151-168 of human HMGB1 (peptide)
peptide: LKEKYEKDIAAYRAKGKP
modifications: also: biotinylated (position not given here)
B3: peptide corresponding to amino acid residues 46-63 of human HMGB1 (peptide)
peptide: SERWKTMSAKEKGKFEDM
modifications: also: biotinylated (position not given here)
notes: also called HMGB1 46-63 peptide; huHMGB1-46-63-B
B4: 2G7 HMGB1 mAb (antibody, V domains shown)
VH: QVQLQQSGAELVRPGSSVKISCKASGYAFSSYWMNWVKQRPGQGLEWIGQIYPGDGDTNYNGKFKGKATLTSDKSSSTAYMQLSSLTSEDSAVYFCARREPYGSYVGFGFWGQGTLVTVSA
VL: ENVLTQSPAIMSASPGEKVTMTCSASSSVSYMHWYQQKSSTSPKLWIYDTSKLASGVPGRFSGSGSGNSYSLTISSMEAEDVATYYCFQGSGYPPTFGGGTKLEIK
notes: Murine hybridoma monoclonal antibody (ATCC PTA-5432); also called 3-2G7-1-1-1; CT3-2G7
B5: peptide corresponding to amino acid residues 61-78 of human HMGB1 (peptide)
peptide: EDMAKADKARYEREMKTY
modifications: also: biotinylated (position not given here)
notes: also called HMGB1 61-78 peptide; huHMGB1-61-78-B

Where no end group is shown, it is not given here.

In test [1] the target is B2. The experiment in a line: peptide ELISA (FIG. 13B). As to the method:
(§1) Biotinylated peptides bound to React-Bind Streptavidin-Coated Plates (Pierce, Rockford, Ill., Catalog # 15501) and non-biotinylated peptides bound to poly-D-lysine coated ELISA plates were used in anti-peptide ELISAs. Biotinylated peptides corresponding to particular 18 amino acid regions of human HMGB1, as well as a longer peptide corresponding to amino acid residues 9-85 of human HMGB1, were prepared and analyzed for binding to particular anti-HMGB1 monoclonal antibodies by ELISA. These peptides, and their respective sequences, are depicted in FIG. 13A. Poly-D-lysine coated plates were prepared by adding 60-100 μl/well of 0.1 mg/ml solution of poly-D-lysine in water. Plates were then incubated at room temperature for 5 minutes and were rinsed with water to remove the solution.
(§2) Briefly, using the molecular weight of the respective peptide, 1 mM peptide solutions were prepared in pyrogen-free water and diluted in 1× phosphate buffered saline. Plate wells were washed three times with 200 μl of PBS and 100 μl of the various peptide solutions were added to designated wells. The plates were then covered and incubated for 60 minutes at room temperature. The wells were then washed three times with PBS, 0.05% polyoxyethylenesorbitan (referred to herein as Tween 20™) using a volume greater than 100 μl. 200 μl of blocking buffer (5% nonfat dry milk in PBS, 0.05% Tween 20™) was added to each of the wells. The plates were covered and incubated for 60 minutes at room temperature. The wells were then washed three times with PBS, 0.05% Tween 20™ using a volume greater than 100 μl.
(In general: ELISA stands for enzyme-linked immunosorbent assay.)

The target in test [2] is T1, peptide corresponding to amino acid residues 157-174 of human HMGB1 (human).
T1 construct: Non-biotinylated; also called HMGB1 157-174 peptide; Human HMGB1-157-174
T1 peptide: KDIAAYRAKGKPDAAKKG
The experiment in a line: peptide ELISA.

The target of test [3] is T2, peptide corresponding to amino acid residues 143-160 of human HMGB1 (human).
T2 construct: Non-biotinylated
T2 peptide: PYEKKAAKLKEKYEKDIA
The experiment in a line: peptide ELISA.

Test [4] concerns the target B1. The experiment in a line: competition ELISA: peptide in solution with the antibody, plate-bound HMGB1.
Test [5] has as its target B1. Kind of test: competition ELISA: peptide in solution against plate-bound HMGB1.
Test [6] addresses B4. Kind of test: competition ELISA: peptide (0.33-243 µM) with 2 µg/ml antibody, plate coated with recombinant rat HMGB1. As for the experimental part: (§3) HMGB1 peptide binding experiments using 2G7 HMGB1 mAb were conducted. As described, biotinylated synthetic peptides corresponding to either amino acid residues 46-63 of human HMGB1 or amino acid residues 61-78 of human HMGB1 were prepared and analyzed for binding to 2G7 HMGB1 mAb (2G7) by ELISA. Briefly, 2 μg/ml of 2G7 HMGB1 mAb was added to plate wells containing either the HMGB1 46-63 peptide or the HMGB1 61-78 peptide at each of the indicated concentrations (0, 0.33, 1, 3, 9, 27, 81 and 243 μM peptide) for one hour at 25° C. to prepare antibody-peptide samples. ELISA plates were coated with 10 μg/ml of recombinant rat HMGB1, and incubated overnight at 4° C. The plates were then blocked with reconstituted milk for one hour at 37° C. Antibody-peptide samples were then added at the concentrations listed above and incubated for one hour at room temperature. The plates were then washed and incubated with Streptavidin-HRP. After washing, the plates were developed with TMB (Invitrogen, San Diego, Calif.) and absorbance at 655 nm was measured using a plate reader.

In test [7] the target is T3, peptide corresponding to amino acid residues 53-70 of human HMGB1 (human).
T3 construct: Non-biotinylated; also called HMGB1 53-70 peptide; huHMGB1-53-70
T3 peptide: SAKEKGKFEDMAKADKAR
The experiment in a line: peptide ELISA (FIGS. 22 and 23). As to the method: as §1
(§4) Briefly, using the molecular weight of the respective peptide, 1 mM peptide solutions were prepared in pyrogen-free water and diluted in 1× phosphate buffered saline. Plate wells were washed three times with 200 μl of PBS and 100 μl of the various peptide solutions were added to designated wells. The plates were then covered and incubated for 60 minutes at room temperature. The wells were then washed three times with PBS, 0.05% polyoxyethylenesorbitan (referred to herein as Tween 20™) using a volume greater than 100 μl. […]

Another test has as its target T4, recombinant rat HMGB1 (rat, UniProt P63159 1-215).
T4 sequence: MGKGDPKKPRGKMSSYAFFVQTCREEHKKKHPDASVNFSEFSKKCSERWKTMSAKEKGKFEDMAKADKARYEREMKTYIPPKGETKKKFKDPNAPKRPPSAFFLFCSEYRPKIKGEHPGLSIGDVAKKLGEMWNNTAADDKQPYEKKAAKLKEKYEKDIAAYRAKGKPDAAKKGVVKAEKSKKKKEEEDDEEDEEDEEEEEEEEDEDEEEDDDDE
Kind of test: sandwich ELISA, mAb as capture antibody, polyclonal antibody or 6E6 as detector. As to the method:
In the first method, ELISA plates were coated with a number of purified anti-HMGB1 mAbs (e.g., 2E11 HMGB1 mAb, 2G5 HMGB1 mAb, 2G7 HMGB1 mAb, 6E6 HMGB1 mAb), and incubated overnight at 4° C. The plates were then blocked with PBS, 1% BSA for one hour at 37° C. After washing, recombinant rat HMGB1 was added at the indicated concentrations, and the plates were incubated at room temperature for 1 hour. The plates were then washed and incubated with rabbit polyclonal antibodies against HMGB1 at 2 μg/ml (see U.S. Pat. Nos. 6,303,321, 6,448,223 and 6,468,533). After 1 hour at room temperature, the plates were washed and incubated for 30 minutes with goat anti-rabbit Ig-HPR (Jackson ImmunoResearch Laboratories, West Grove, Pa.) diluted at 1:1000 in PBS. After washing, the plates were developed with TMB (Invitrogen, San Diego, Calif.) and absorbance at 655 nm was measured using a plate reader.
As depicted in FIGS. 14 and 15, two different ELISA methods were used to examine the properties of particular anti-HMGB1 monoclonal antibodies. In one method, HMGB1 monoclonal antibodies 2E11 HMGB1 mAb, 2G5 HMGB1 mAb, 2G7 HMGB1 mAb, and 6E6 HMGB1 mAb, were used as capture antibodies and a polyclonal HMGB1 antibody was used as the detector antibody. […]

The next test deals with T5, CHO HMGB2 (Chinese hamster (CHO cells), UniProt A0A8C2QD03 1-210).
T5 construct: also called non-recombinant (natural) HMGB2 from Chinese Hamster Ovary (CHO) cells
T5 sequence: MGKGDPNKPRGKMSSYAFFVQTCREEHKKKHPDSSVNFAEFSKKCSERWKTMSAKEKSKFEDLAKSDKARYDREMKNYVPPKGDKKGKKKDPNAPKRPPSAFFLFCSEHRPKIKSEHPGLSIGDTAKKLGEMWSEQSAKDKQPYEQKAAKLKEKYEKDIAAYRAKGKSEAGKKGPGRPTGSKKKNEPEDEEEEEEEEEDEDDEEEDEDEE
Kind of test: Western blot. A general note: A western blot detects proteins with antibodies after separation by electrophoresis.

The target in test [8] is B3. The experiment in a line: peptide ELISA (FIG. 13B). As to the method:
as §1, §2

For test [9], the target named is T6, peptide corresponding to amino acid residues 46-63 of human HMGB2 (human, also: biotinylated (position not given here)).
T6 construct: also called HMGB2 46-63 peptide; huHMGB2-46-63-B
T6 peptide: SERWKTMSAKEKSKFEDM
The experiment in a line: peptide ELISA.

Test [10] concerns the target T7, peptide consisting of a scrambled sequence of amino acid residues 46-63 of human HMGB1.
T7 construct: Non-biotinylated; scrambled control; also called Human HMGB1-46-63-scr
T7 peptide: RMKEESSAKDGWFTEMKK
The experiment in a line: peptide ELISA.

Test [11] deals with T8, peptide corresponding to amino acid residues 40-57 of human HMGB1 (human).
T8 construct: Non-biotinylated; also called HMGB1 40-57 peptide; Human HMGB1-40-57
T8 peptide: EFSKKCSERWKTMSAKEK
Kind of test: peptide ELISA.

The target of test [12] is B4. The experiment in a line: competition ELISA: peptide in solution against plate-bound recombinant rat HMGB1. As to the method: as §3
For test [13], the target named is B5. Kind of test: peptide ELISA (FIG. 13B). As for the experimental part:
as §1, §2

Test [14] deals with T9, peptide corresponding to amino acid residues 67-84 of human HMGB1 (human).
T9 construct: Non-biotinylated; also called HMGB1 67-84 peptide; Human HMGB1-67-84
T9 peptide: DKARYEREMKTYIPPKGE
The experiment in a line: peptide ELISA (FIG. 24). As to the method: as §1, §4

Test [15] concerns the target T10, peptide consisting of a scrambled sequence of amino acid residues 61-78 of human HMGB1.
T10 construct: Non-biotinylated; scrambled control; also called Human HMGB1-61-78_scr
T10 peptide: AKDYMEARKDTEYKMARE
Kind of test: peptide ELISA.

The target of test [16] is T3, peptide corresponding to amino acid …. Kind of test: peptide ELISA.

For B1, the values for the binding result in test [1], in [2] and in test [3] were “binds”, “no binding (tested: 2 µg/ml antibody)” and “no binding (tested: 2 µg/ml antibody)”, respectively.

For B2, the binding result in the test with 2E11 HMGB1 mAb [4] is recorded as “binds”.

For B3, the binding result in the test with 2E11 HMGB1 mAb [5] is “no binding”; with 2G7 HMGB1 mAb [6], “binds”.

Regarding B4, the binding result in test [7] was “binds”; with recombinant rat HMGB1, “binds”; in the test with CHO HMGB2, “no binding (tested: 2 µg/ml antibody)”; in test [8], “binds”; in test [9] it was “no binding (tested: 2 µg/ml antibody)”; in test [10], “no binding (tested: 2 µg/ml antibody)”. The binding result in [11] is “no binding (tested: 2 µg/ml antibody)”.

With B5, the binding result with 2G7 HMGB1 mAb [12] was “no binding (tested: up to 243 µM peptide)”.

B6: 6E6 HMGB1 mAb (antibody, V domains shown)
VH: EVQLQQSGAELVKPGASVKLSCTASGFNIKDTYMHWVKQRPEQGLEWIGRIDPANGNTKYDPKFQGKATITADTSSNTAYLQLSSLTSEDTAVYYCARGAYWGQGTLVTVSA
VL: DIVLTQSPASLAVSLGQRATISCKASQSVDYDGDSYMNWYQQKPGQPPKLLIYAASNLESGIPARFSGSGSGTDFTLNIHPVEEEDAATYYCQQSNEDPFTFGSGTKLEIK
notes: Murine hybridoma monoclonal antibody (ATCC PTA-5433); also called 6E6-7-1-1; CT3-6E6
On to B6, for which the binding result with recombinant rat HMGB1 is reported as “binds”; in test [13] it was “binds”; in [14], “binds”; in test [15] it was “no binding (tested: 2 µg/ml antibody)”; in [16], “no binding (tested: 2 µg/ml antibody)”.
